Our source for the stoichiometry N values is paper PMC3597719.

This experiment has as its target NS1 protein expressed in yeast cells (UniProt P14340).

For orientation: stoichiometry N means the number of molecules, sites or subunits per partner or assembly. Regarding “NS1 protein expressed in yeast cells (from UniProt P14340 776-1127) (natural protein)”, the stoichiometry N is 2.
